T1: GST-PAR6 (Par6a, cds) (human, UniProt Q9NPB6 1-346)
T1 sequence (looked up): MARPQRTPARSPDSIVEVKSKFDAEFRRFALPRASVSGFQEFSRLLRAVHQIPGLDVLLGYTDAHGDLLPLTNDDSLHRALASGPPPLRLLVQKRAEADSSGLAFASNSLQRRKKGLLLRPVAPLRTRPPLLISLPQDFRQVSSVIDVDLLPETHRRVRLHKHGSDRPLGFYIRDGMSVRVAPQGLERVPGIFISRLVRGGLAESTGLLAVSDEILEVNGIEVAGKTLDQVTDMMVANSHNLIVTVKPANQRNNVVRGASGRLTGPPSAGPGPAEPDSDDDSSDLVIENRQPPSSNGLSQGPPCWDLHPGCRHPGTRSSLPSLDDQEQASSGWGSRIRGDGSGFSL

B1: HIS-aPKCι, PB1 domain of human atypical protein kinase C ι (amino acids 1–113) (domain or fragment, UniProt P41743 1-113, looked up)
chain: MPTQRDSSTMSHTVAGGGSGDHSHQVRVKAYYRGDIMITHFEPSISFEGLCNEVRDMCSFDNEQLFTMKWIDEEGDPCTVSSQLELEEAFRLYELNKDSELLIHVFPCVPERP

Legend:
[1] = biological target: atypical protein kinase C ι (aPKCι) (Homo sapiens, UniProt P41743)
[2] = biological target: T1, GST-PAR6 (Par6a, cds); assay: pull-down

| Molecule | IC50 [1] | mean binding ratio at 10 μM ATM (0 μM ATM = 100%) [2] | mean binding ratio at 50 μM ATM (0 μM ATM = 100%) [2] |
| --- | --- | --- | --- |
| O=C(O)CC([S][Au])C(=O)O (stereo not drawn) [ATM, aurothiomalate] | 20.4 µM |  |  |
| B1 |  | 63.8% | 32.7% |

Source: PMC3973203 (Cell Death & Disease, 2014)
